The text below walks through data of the DeepSol protein solubility set.

The nature of this data set: soluble on expression in E. coli; label from the status in PepcDB or PDB records.
As to “MTNEFEILKPGKLLLASANLLDPNFKRTVLLMCEHNEEGSIGFILNKPMEFKVCEAISGFDEIDEPLHMGGPVQVDTVHVLHTRGDVIDGAVEVIPGLFWGGDKEQLSYLINTGVIKASEVRFFLGYAGWSAGQLEAEFEEGSWYTADASSEQVFTDEYERMWSRSVRSKGGEYCYVANSPELPGMNLEHHHHHH”, the “soluble on expression in E. coli” value is listed as “not soluble”. The same measure for “MGSDKIHHHHHHMGLASPWQVSISSFDAEKKRLDIHLDVAPGSTFCCPECGILKLQSFPWSGRDSGFTLLFEAMIMVMARSMAVKAIATIVGEHDTRIWRIVHHYVDQAREMEDYSAVTTVGVDEPSSKRGHNSVTLFADLARSKVLFATEGKDASTVERFRDDLVAHKGNPASVTECCSDMSPACISGIGSHFVNAHLSFDKFHVMQIINHAVDEVRRQEQQERPELKKSRYLWLKNQQNLKAKQRNRLEELSLAKLNLKTARADRMRLAFQECFNQPVTLAESFLKKWCFRAANSISPYPLETARSQDNDGWTHRASWAGI”: “not soluble”; for “EPEQVIRKYTEELKVAPEEDCIICMEKLAVASGYSDMTDSKALGPMVVGRLTKCSHAFHLLCLLAMYCNGNKDGSLQCPSCKTIYGEKTGTQPWGKMEVFR”: “soluble”; for “MRILEEDLKNSTYRIRIESLDDLWYLRNILSEGDEVSAITFRRVEESADVQRSRERERIPITIRLKVEKIEFQDFDNRLRILGTVIEGPEDTKGKHQSITVTVDSEISITKEWDDQHIDLLKEATDEKYVTVYTAVAMDEDEAQIFLIHPYGIQQVGTVYSGRSGKYAEGNYSEASYFDQIVNALKNYSNSIIILGPGFARDRFARYCAQRGVNVIGSFPANRTDSGAVYEFITSADGAKLLSNERIARDKEIVDEFLVAVKKDMGVYGRDQTESALQMGALSDLIITDEMFRTEDGRRSLSIAQTVGTRIHIVSVSNDPGQIVKKFGGFAGILRYRVQLEHHHHHH”: “soluble”. Consider “GSHMSGKARLHYPVTRQGEQVDHYFGQAVADPYRWLEDDRSPETEAWVKAQNAVTQDYLAQIPYRAAIKEKLAASWNYAKEGAPFREGRYHYFFKNDGLQNQNVLWRQQEGKPAEVFLDPNTLSPDGTTALDQLSFSRDGRILAYSLSLAGSDWREIHLMDVESKQPLETPLKDVKFSGISWLGNEGFFYSSYDKPDGSELSARTDQHKVYFHRLGTAQEDDRLVFGAIPAQHHRYVGATVTEDDRFLLISAANSTSGNRLYVKDLSQENAPLLTVQGDLDADVSLVDNKGSTLYLLTNRDAPNRRLVTVDAANPGPAHWRDLIPERQQVLTVHSGSGYLFAEYMVDATARVEQFDYEGKRVREVALPGLGSVSGFNGKHDDPALYFGFENYAQPPTLYRFEPKSGAISLYRASAAPFKPEDYVSEQRFYQSKDGTRVPLIISYRKGLKLDGSNPTILYGYGGFDVSLTPSFSVSVANWLDLGGVYAVANLRGGGEYGQAWHLAGTQQNKQNVFDDFIAAAEYLKAEGYTRTDRLAIRGGSNGGLLVGAVMTQRPDLMRVALPAVGVLDMLRYHTFTAGTGWAYDYGTSADSEAMFDYLKGYSPLHNVRPGVSYPSTMVTTADHNDRVVPAHSFKFAATLQADNAGPHPQLIRIETNAGHGAGTPVAKLIEQSADIYAFTLYEMGYRELPRQP”, for which the “soluble on expression in E. coli” value is “soluble”. With “MAHHHHHHMRSPASEGDCGVRLRVSWREGKQRALTDELDAKHQSDPYETLQTSDRKVFVSNTAAGAGRLLTDPQVHADDKGFSTYLRERLLVRVLPEGQKCVCGADASNEHVHTCTRLQQNPRTTRHEMISMTFANGLRLCGFQCGMEPRLTEASRRRPDILIVGLDTYAITDVTVTYAGRVTAYVSEESMEEADPLRAARDRLTQKRQKYRHWALANGLDFEPFVMLTNGAIHPAIRRWLRRILGARVLAYAGAQWVAERQ”, the “soluble on expression in E. coli” value is “soluble”. Under “MHLYNLTLQGQSAINQAIQGNFSGTPKAQEIVVGRGSALELLTLDTVTGKIKVMCHQDIFGIVRSLLAFRLTAGTRDFIAVGSDSGRIVILQYNAEKTCFERLHQETFGKTGCRRIVPGHFLVGDPRGRALMIGAVERQKLVYIMNRDSEAHLTISSPLEAHKHHTLCYAMVGIDVGFENPTFACLEFDYEDADNDPTGEAAKRTQQTLTFYELDLGLNHVVRKYAEPLNDPGNLLIAVPGGNDGPSGVIVCCENYLVYKNLGDQPDIRCPIPRRRNELDDADRTMLIIATATHKTKNMYFFLVQAENGDIFKVTLETDEDLVSEMKLKYFDTVPPANALCILKSGFLFVAAEFGNHELYQIASLGEGDDDEFSSAMGFGENDAAFFEPHELKSLIPIDSMDSLSPLTDAVIGDIAREDAAQIYSLVGRGARSSLKVLRNGLEISEMAVSDLPGNPNAVWTVKKNIEDQYDSYIVVSFVNATLALTIGDTVEEASDSGFLPTTPTIGCAMIGDDSLVQIYSEGIRHIRADKRINEWKAPPRRQIVKCAVNRRQVAVALTGGELVYFELDLNGTLNEFTERKLFNADIACMTFSEISEGELNSRFLALGTVDNAVRIISLDPNDMLMPLSTQSLPCPPESILLIDTPNEDGKGVAAVHLNIGLQNGCLFRNTVDNVTGAIMDTRTRYLGTRPVKLFKVQCQGRSAILCTSSRSWLLYHFQRRFHLTPLSYANLEYAASFCSNQCSEGIVAISASTLRIIAAEKLGVAFNVQSFEHKMTPRRVAVHPSMPCLIVIETDHASYTEVTKNIKRNQMAADVEAMASDETEAQLAQEIATNLRERRLDERVYGAPRAARGKWASAISLISATSGDKLSYFELPQDENAKCVALVQFSKHPNEAMVLVGCGVNEVLNVHDIDPNDTSIRPTRGCVYTFHLSANGDRFDFLHRTETPLPVGAIHDFRGMALVGFGRFLRMYDIGQKKLLAKCENKNFPVSIVNIQSTGQRIIVSDSQESVHFLRYRKGDNQLVVFADDTTPRYVTCVCVLDYHTVAVADKFGNLAVVRLPERVNEDVQDDPTVSKSVWDRGWLNGASQKVELVSNFFIGDTITSLQKTSLMPGANEALVYTTIGGAIGCLVSFMSKDEVDFFTNLEMHVRSEYPPLCGRDHLAYRSYYAPCKSVIDGDICEQFSLMDTQKQKDVAEELGKTVSEISKKLEDIRTRYAF” stands “not soluble”; under “PKPLKNLDGQFCEICGDQIGLTVEGDLFVACNECGFPACRPCYEYERREGTQNCPQCKTRYKRLRGSPRVEGDEDEEDID”, “soluble”. The same measure for “MNPIPADVAAVVLAGGVGRRFGRPKALAMMDGISLVERAVEALSSGPADVYVSVSPALERPVARLVGSRRVIVDLVEQAPCEGPLRAFLTAASTLVSYSNLVFMPVDAPWASWRDLEPIYNASKAIGSGASYFSGEGIVHPLFLAARRKSLLTAAWTACWGRAEKRASAILRSLDPLILLGSSETRSPLALATVNTPQDLWRPSRVPAPAEGYILLEGHSILYKISSTMNSYYSALALEAEYKLYRRLGLLRLASHVLKDAAALNVSTSLIQQESMAGGLGLEHHHHHH”: “not soluble”; for “MIVAIIDGYTDEPAGLGVPPYLGLYPRYAYGAIKKARRDANIFYLTIDDLRATFEGEQGIKTKNKTPNFPKVKEILEKAEVIVFIGGLHTPGKYLSAVPGSVEEVSKFISHYNGVKVLGGPAFMGSAKIGGVKVTTKELRFAEEVFDYVVYGDIEAFLFDYFSGRELDPFRFRDYEELQPYALLGAEVVKQFPGYPEFVLIEIETQRGCPKAMGIGGCSFCTEPVRYRVVENRPQEYVAQEVKVFYNLGIRHFRIGRQSCIFSYMAKPNGRVPIPNPEEVEKLFKAVRLAAPNVKTLHVDNANPAVIANYPEESKRIAKAIIRYGTPGNVVAFGLETADPKVARINNLNATPEETYEAVKIINEVGGKRGYNGLPWLLPGINIIFGLPGETKRTYELTYEFLKKILDDGLMVRRINIRQVVVFPGTPLWNMRDKVKTEKHKKLIEHYRHKIRHEIDLPMLKRIVPVGTILRDVRAEIYDGELTFGRQFGSYPLIVGIPKRVELDRYYDVMIVDHGLRSVTGIPVPIDVNGESSKVLRWLPGIGKKTLARILAKRPFKSEEEFLSLLPEDVKKMYKGKIKV”: “soluble”; for “MISIPVAQQQKLPRLVLPRVYGFPPNRETLGGTAYLIVENDGNTLIDSPPWTDGSQHWLREQGGVKRLILTHRGAIARVRAIQDTFDCEVMIHAQEAYLLPQVTVTPFNHHLAIGETLEILWTPGHSPGSACVYWSCQGGVLFTGRHLLPTPTGELAPIKTATTFHWPRQLRSVEALKAFCRQKSLSYLCPGANMGFLRGTLAIANAQAVLQGLSVDNLLCDKFLEHHHHHH”: “not soluble”. Under “MGSDKIHHHHHHMKIAIVGSGNGAVTAAVDMVDKGHDVRLYCRNESISKFDVALEKGGFDFYNEGEEKFIEFTDISDDMEYVLDGADIVQVIIPSSFIEYYAKVMSKFVTNDHLIFFNIAASMGSIRFMNVLEDRHIDVHPHFAEANTLTYGTRVDFNNAKVDLSLNVRRVFFSTFDRSELNESYEKVSKIYDYLVKEESLLKTNLENGNPEVHPGPTLLNVGRIDYSEEFSLYKEGITKHTVRLLHAIEIERLNLGRKLGFELSTAKESRIQRGYLERKDEDEPLNRLFNTSPVFSQIPGPNHVENRYLTEDIAYGLVLWSSLGRVIDVPTPNIDAVIMIASTILERDFFEEGLTIEELGLDKLGLE” stands “not soluble”; under “SNAMATNLIGLDTTQSQKLANALNNLLANYQVFYMNTRGYHWNIQGKEFFELHAKFEEIYTDLQLKIDELAERILTLSARPMHSFSGYLKAAQIKEHTDSIDGRSSMQGLVDGFSILLHQQRDILELAGETGDEGTSALMSDYIREQEKLVWMLNAWLK”, “soluble”. “MAIKITPDEFSLLIQRLNKKWRVFAPSAEFRGGRFSDTDNIIYQRISGWRDLIWHEKSHMSPNTIIAPITETLFYFDKDTIQIAETDTSPIIIFARACDINAMSRLDYMYLSNGNNSDYSYQLLREHIRFVLIECEESFENCFCVSMGTNKTDCYSAAMRFSDEGALVSIRDPFIEAAIQGLGQEADYTPSFVSENRETVVTPDSVCHDPQKIRDILTHHPLWDAYDSRCISCGRCTTGCPTCTCYSVFDVAYDENPQRGERRRQWASCMVPGFSDMAGGHGFREKPGERLRYRALHKVNDYKARNGIEHMCVGCGRCDDRCPQYIKFSLIINKMTAAVRQALAEEA”: the “soluble on expression in E. coli” value is reported as “not soluble”. In the case of “MAHHHHHHMMYSRLFHESLGIVIISPSRSSASPALVIADAFYSAMRLQVMLAMPFVQPRFASIFRLLLRAVPLLPPFMATFTFRRCTSDLSRRSAMRCFTARLQLLTFETLLCGSHGVLPPPARLAAACARAKEEFALQCSTSAPPPTKLTTAVVATHLLHNNLRDAAAVLASHPCQQQVLEEVRDYVRQHPGVFSVSTLTGMLEEARCVSPAAVATFLRAAVDEFLRGSSAASTVGDEATAWDAQRENLRSLVLRHIRFYPACVSFLLGSLCAVSRGCAGDREDVIEVMQIAMRERSMNPRDFGGVLDVVWKSREPRRVAMMWAWMQHTSACWDVRAASIAIMAFSELHQMDEAVACIQRLAEADGDPTIDAQVAFVRFLGVRTPSLLRYAAQLVLHWHPSGERLWRGEPQAVGMELVKICCACGERKWAVEMLEQMVATNASVPAELEAFMLRPGAAALGEHYSASVAASKTLQELFIDVPLRLPNLGEQPALVGLLLSLGMVTNRLPEVYDALEKASLTPANFQDALDCFVTGSVVKAASPVAVLACVREAGVRTGHKVPKEMESWLQLATEM”, the “soluble on expression in E. coli” value is on record as “not soluble”. The same measure for “MSTDSQNPVRKSCAQPHSCSQEVRLKAMSRSPLTKGLNQLEHLELDKSLTAWSWAEDDPLYLAGENLNGSYLIVAGRVRVSRDTIDGKELTVDIATPGDVIGAIDTEPQPAVDSAWAIETTCALFLPATALATVIEQHPSFALAMIRMQQQRLATARDHEINLTTTTVEQRVAIAVRTLGRKIGQRRPDGILLIQVRIRREDVAGLAGTTVESTSRVLARLRKEGVIDSGREWIAVVDERQLDAIIGEDF”: “not soluble”.
